This assay has as its target human GLP-1 receptor (human) (UniProt P43220). The assay can be described thus: cell-based or functional assay.

Chain of human GLP-1 receptor (human) (P43220 24-463): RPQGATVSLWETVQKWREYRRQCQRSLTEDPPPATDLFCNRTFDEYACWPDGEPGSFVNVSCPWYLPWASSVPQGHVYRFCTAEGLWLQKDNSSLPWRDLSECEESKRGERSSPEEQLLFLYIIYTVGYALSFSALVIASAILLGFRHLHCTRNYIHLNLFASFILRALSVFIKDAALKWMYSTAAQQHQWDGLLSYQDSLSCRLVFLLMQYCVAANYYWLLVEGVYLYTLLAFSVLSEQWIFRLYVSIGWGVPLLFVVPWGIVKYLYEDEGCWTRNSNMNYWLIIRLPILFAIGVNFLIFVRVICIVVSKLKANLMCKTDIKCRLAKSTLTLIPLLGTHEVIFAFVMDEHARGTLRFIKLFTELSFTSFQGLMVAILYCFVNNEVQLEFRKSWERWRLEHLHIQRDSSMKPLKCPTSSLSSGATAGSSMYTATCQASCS

For “N-epsilon37-[2-(2-{2-[2-(2-{2-[(S)-4-Carboxy-4-({trans-4-[(19-carboxynonadecanoylamino)methyl]cyclohexanecarbonyl}amino)butyrylamino]ethoxy}ethoxy)acetylamino]ethoxy}ethoxy)acetyl][DesaminoHis7,Glu22,Arg26,Arg34,Lys37]GLP-1-(7-37) (peptide)”, the EC50 of cAMP formation (AlphaScreen, Assay XI), relative to that of compound G1 (times the EC50 of compound G1) turned out to be 5.

The values above are taken from US20130012432A1, “Peptides for Treatment of Obesity” (Novo Nordisk A/S, priority 2010, published 2013).
